Data on 18 molecules can be found in patent publication US20260234247A1 (published 2026).

Experiment [1] addresses T1, human LILRB1 on CHOK1 cells (human, UniProt Q8NHL6 24-650).
T1 construct: whole, on cells; also called CHOK1-hLILRB1; CHOK1-LILRB1
The experiment is described as follows: FACS binding, CHOK1-hLILRB1 cells.

For experiment [2], the target named is T2, human LILRB2 on CHOK1 cells (human, UniProt Q8N423 22-597).
T2 construct: whole, on cells; also called CHOK1-hLILRB2; CHOK1-LILRB2
T2 sequence (Q8N423 22-597): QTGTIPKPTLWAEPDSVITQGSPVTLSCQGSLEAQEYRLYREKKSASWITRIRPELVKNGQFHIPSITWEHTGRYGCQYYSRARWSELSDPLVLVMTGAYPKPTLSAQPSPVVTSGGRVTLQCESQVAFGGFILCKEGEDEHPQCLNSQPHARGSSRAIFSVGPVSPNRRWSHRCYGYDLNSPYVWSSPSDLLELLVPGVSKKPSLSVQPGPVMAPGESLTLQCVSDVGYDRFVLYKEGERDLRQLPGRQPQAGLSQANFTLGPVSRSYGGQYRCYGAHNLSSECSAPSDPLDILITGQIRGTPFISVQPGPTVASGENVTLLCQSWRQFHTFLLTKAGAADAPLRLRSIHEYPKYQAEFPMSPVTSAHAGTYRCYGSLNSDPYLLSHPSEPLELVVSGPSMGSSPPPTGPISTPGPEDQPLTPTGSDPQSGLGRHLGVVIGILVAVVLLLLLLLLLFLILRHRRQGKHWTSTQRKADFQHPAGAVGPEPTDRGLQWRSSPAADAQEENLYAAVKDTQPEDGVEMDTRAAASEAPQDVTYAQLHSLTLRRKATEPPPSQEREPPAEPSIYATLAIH
Kind of experiment: FACS binding, CHOK1-hLILRB2 cells.

T1 sequence (Q8NHL6 24-650): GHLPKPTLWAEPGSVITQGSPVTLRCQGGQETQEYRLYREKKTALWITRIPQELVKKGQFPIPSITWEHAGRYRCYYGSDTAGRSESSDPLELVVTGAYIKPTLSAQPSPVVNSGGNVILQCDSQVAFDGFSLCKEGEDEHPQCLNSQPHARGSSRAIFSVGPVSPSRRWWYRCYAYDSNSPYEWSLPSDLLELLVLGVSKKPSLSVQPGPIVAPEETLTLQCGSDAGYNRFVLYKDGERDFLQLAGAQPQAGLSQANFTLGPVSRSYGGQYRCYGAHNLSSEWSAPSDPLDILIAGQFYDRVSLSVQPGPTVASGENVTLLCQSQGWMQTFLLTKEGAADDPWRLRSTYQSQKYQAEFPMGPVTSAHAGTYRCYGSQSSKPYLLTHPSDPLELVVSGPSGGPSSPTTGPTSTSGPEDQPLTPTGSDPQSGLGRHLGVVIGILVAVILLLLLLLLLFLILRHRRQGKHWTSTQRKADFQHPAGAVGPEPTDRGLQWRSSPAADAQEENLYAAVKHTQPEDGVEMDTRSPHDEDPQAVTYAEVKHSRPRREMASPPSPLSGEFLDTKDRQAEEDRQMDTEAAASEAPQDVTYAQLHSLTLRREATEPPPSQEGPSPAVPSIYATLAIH

B1: LK-RB1-31 (antibody, human IgG4 S228P, kappa, V domains shown)
VH: QVQLKESGPGLVAPSQSLSITCTVSGFSLTSYGVSWVRQPPGKGLEWLGIIWGDGSTNYHSALKSRLSISKDNSKSQVFLKLNSLQTEDTATYYCAKPNWDYYAMDYWGQGTSVTVSS
VL: DIQMTQTTSSLSASLGDRVTISCRASQDISNYLNWYLQKPDGTVKLLIYYTSRLHSGVPSRFSGSGSGTDYSLTISNLEQEDIATYFCQQGITLPCTFGGGTKLEIKR
In experiment [1], B1 registered an EC50 of 2.91 nM. The binding result in experiment [2] is “no binding”.

B2: LK-RB1-51 (antibody, human IgG4 S228P, kappa, V domains shown)
VH: QVQIQQSGAELVKPGASVKLSCKASGYTFTEFPIHWIKQRSGQGLEWIGWFYPGSDNMNYNEKFKDKATLTADKSSSTVYMELSRLTSEDSAVYFCARHENAYFYAMDYWGQGTSVTVSS
VL: ENVLTQSPAIMSASLGEKVTMSCRASSSVNYMYWYQQKSDASPKIWIYYTSNLAPGVPARFSGSGSGNSYSLTISSMEGEDAATYYCQQFTSSPFTFGTGTKLEIKR
Regarding B2, the binding result in experiment [1] and in experiment [2] was “no binding” throughout.

B3: LK-RB1-54 (antibody, human IgG4 S228P, kappa, V domains shown)
VH: DVQLQESGPGLVKPSQSLSLTCSVTGYSITSGFYWNWIRQFPGNKLEWMGHISYDGTNNYNPSLKNRISITRDTSKNLFFLKLNSVTTEDTATFHCARGGYGGSYGFDYWGQGTTLTVSS
VL: ENVLTQSPAIMSASLGEKVTMSCRASSSVNYMYWYQQKSDASPKLWIYYTSNLAPGVPVRFSGSGSGNSYSLTISSMEGEDAATYYCQQFTSSPWTFGGGTKLEIKR
On to B3, for which the binding result in experiment [2] was “no binding”.

B4: LK-RB1-35 (antibody, human IgG4 S228P, kappa, V domains shown)
VH: DVQLQESGPGLEKPSQSLSLTCSVTGYSITRGYQWNWIRQFPGNKLEWMGYISYDGSNNYNPSLKNRISITRDASKNQFFLKLNSVTTEDTATYYCARRSYNSIDYWGQGTTLTVSS
VL: DIVLTQSPATLSVTPGDSVSLSCRASQSISSNLHWYQQKSHESPRLLIKYASQSISGIPSRFSGSGSGTDFTLSINSVETEDFGMYFCQQSNSWPLTFGAGTKLELKR
In turn, B4 gave an EC50 in experiment [1] of 0.44 nM. The binding result in experiment [2] is recorded as “no binding”.

B5: LK-RB1-38 (antibody, human IgG4 S228P, kappa, V domains shown)
VH: DVQLQESGPGLVQPSQSLSLTCSVTGYSITSGYQWNWIRQLPGNKLEWMAYISFDGSNNYNPSLKNRISITRDTSKNQFFLKLKSVTTEDTATYYCARRDYDGVAYWGQGTLVTVSA
VL: EIVLTQSPATLSVTPGDRVSLSCRASQNISNYLHWYQQKSHGSPRLIIKYASQSISGIPSRFSGSGSGTDFTLSINSVETEDFGMYFCQQSNSWPLTFGAGTKLELKR
In turn, B5 yielded a 50% effective concentration (EC50) in experiment [1] of 2.45 nM. In addition, in experiment [2], the binding result is listed as “no binding”.

B6: LK-RB1-36 (antibody, human IgG4 S228P, kappa, V domains shown)
VH: DVQLQESGPGLEKPSQSLSLTCSVTGYSITRGYQWNWIRQFPGNKLEWMGYISYDGSNNYNPSLKNRISIIRDTSKNQFFLKLNSVTTEDTATYYCARRSYNSIDYWGQGTTLTVSS
VL: DIVLTQSPATLSVTPGDSVSLSCRASQSISNNLHWYQQKSHESPRLLIKYASQSISGIPSRFSGSGSGTDFTLSINSVETEDFGMYFCQQSNSWPLTFGAGTKLELKR
For the molecule B6, in experiment [1], the EC50 stood at 0.46 nM. For the same molecule, the binding result in experiment [2] is “no binding”.

B7: LK-RB1-46 (antibody, human IgG4 S228P, kappa, V domains shown)
VH: EVQLQQSGPELVKPGASVKISCKTSGYTFTDYYMNWVKQSHGKSLEWIGDIYPINGDISYNQKFKGKATLTVDKSSSTVYMEIRSLTYEDSAVYYCARLAQTTSGGFDYWGQGTTLTVSS
VL: DIVLTQSPTSLAVSLGQRAIISCKASQSVSFAGTSLMHWYQQKPGQQPKLLIYRASNLKAGVPTRFSGSGSRTDFTLNIHPVEEDDAATYYCQQSREYPMYTFGGGTKLEIKR
In turn, B7 yielded an EC50 in experiment [1] of 0.97 nM. Also, the binding result in experiment [2] is recorded as “no binding”.

B8: LK-RB1-40 (antibody, human IgG4 S228P, kappa, V domains shown)
VH: DVQLQESGPGLVQPSQSLSLTCSVTGYSITSGYQWNWIRQLPGNKLEWMAYISFDGSNNYNPSLKNRISITRDTSKNQFFLKLKSVTTEDTATYYCARRDYDGVAYWGQGTLVTVSA
VL: DVLMTQTPLSLPVSLGDQASISCRSSQSIVHSNGNTYLEWYLQKPGQSPKLLIYKVSNRFSGVPDRFSGSGSGTDFTLKISRVEAEDLGVYYCFQGSHVPWTFGGGTKLEIKR
As for B8, the binding result in experiment [1] and in experiment [2] was “no binding” each time.

B9: LK-RB1-37 (antibody, human IgG4 S228P, kappa, V domains shown)
VH: QVQLQQPGAELVKPGASVKLSCKASGYTFTSYWMHWVKQRPGRGPEWIGRIDPNSGYARYNEKFKNKATLTADKPSSTADMHLSSLTSEDSAVYYCTRSFITTAEWFFDVWGTGTTVTVSS
VL: DILLTQSPAILSVSPGERVSFSCRASQSIGTSIHWYQQRRNGSPRLLIKYTSESISGIPSRFSGSGSGTDFTLSINSVESEDIADYYCQQSNSWPHTFGGGTKLELKR
As for B9, the EC50 in experiment [1] was 2.51 nM. Moreover, the binding result in experiment [2] is listed as “no binding”.

B10: LK-RB1-44 (antibody, human IgG4 S228P, kappa, V domains shown)
VH: QVQLQQSGTELAKPGASVKLSCKASGYTFTNYWMHWIKQRPGQGLEWIGYVHPTSDYTKYNQKFKDKATLTADKSSSTAYMQLNSLTYEDSAVYYCTRSSLYDTNYVFDSWGQGTTLTVSS
VL: DILLTQSPAILSVSPGERVSFSCRASQSIGRSIHWFQQRTNGSPSLLIKYASESISGIPSRFSGGGSGTDFTLSISNVESEDIADYYCQQSNNWPFTFGSGTKLEIKR
In experiment [1], B10 registered an EC50 of 2.79 nM. For the same molecule, in experiment [2], the binding result was “no binding”.

B11: LK-RB1-45 (antibody, human IgG4 S228P, kappa, V domains shown)
VH: QVQLQQSGTELARPGASVKLSCKASGYTFTNFWMHWIKQRPGQGLEWIGYVNPTSDYTKYNQKFKDKATLTADKSSSTAYMQLNSLTYEDSAVYYCTRSSLYDTNYVFDSWGQGTTLTVSS
VL: DILLTQSPAILSVSPGERVSFSCRASQSIGRSIHWYQQRTNGSPRLLIKYASESISGIPSRFSGGGSGTDFTLSISNVESEDIADYYCQQSNNWPFTFGSGTKLEIKR
Take B11: the EC50 in experiment [1] is 1.78 nM. The binding result in experiment [2] is reported as “no binding”.

B12: LK-RB1-50 (antibody, human IgG4 S228P, kappa, V domains shown)
VH: QVQLKQSGPGLVQPSQSLSITCTVSGFSLTSYGVHWVRQSPGKGLEWLGVIWRGGNTDYNAPFVSRLSITKDNSQSQVFFKMNSLEADDTAIYYCAKNSLDVYSSWYFDVWGTGTTVTVSS
VL: QIVLSQSPAILSAFPGEKVTMTCRASSSVSFMHWYQQKPGSSPKPWIYATSNLASGVPARFSGSGSGTSYSLTISRVEAEDAATYYCQQWSSNPLTFGAGTKLELKR
Regarding B12, the figures for the concentration giving a half-maximal response (EC50) in experiment [1] and in experiment [2] were 2.01 nM and 605 nM, respectively.

B13: LK-RB1-56 (antibody, human IgG4 S228P, kappa, V domains shown)
VH: QVQLKQSGPGLVQPSQSLSITCSVSGFSLTNYGVHWVRQSPGKGLEWLGVIWRGGSTDNNAAFMSRLSITKDNSKSQVFFKMNSLQADDTAIYYCAKNSDFYGSSWYFDVWGTGTTVTVSS
VL: QIVLSQSPAILSASPGEKVTMTCRASSSVSFMHWYQQKPGSSPKPWIYATSNLASGVPARFSGSGSGTSYSLTISRVEAEDAATYYCQQWSRNPPTFGAGTKLELKR
Consider B13, for which, in experiment [1], the EC50 was 1.24 nM. In addition, the binding result in experiment [2] is “no binding”.

B14: LK-RB1-58 (antibody, human IgG4 S228P, kappa, V domains shown)
VH: QVQLKQSGPGLVQPSQSLSITCTVSGFSLTTYGVHWVRQSPGKGLEWLGVIWRGGSTDYNAAFMSRLSITKDNSKSQVFFRMNSLQADDTARYYCAKNSLYYGSSWYFDVWGTGTTVTVSS
VL: QIVLSQSPAILSASPGEKVTMTCRASSSVSFMHWYQQKPGSSPKPWIYATSNLASGVPARFSGSGSGTSYSLTISRVEAEDAATYYCQQWSSNPPTFGGGTKLEIKR
B14: in experiment [1], the EC50 was 5 nM. The binding result in experiment [2] is “no binding”.

B15: LK-RB1-28 (antibody, human IgG4 S228P, kappa, V domains shown)
VH: QVQLQQSGPELVKPGTSVKMSCKASGYTFTSHYIHWMKQRPGQGLDWIGWIYPGDGHTKYHEKFKGKATLTADTSSITAYMQLSLLTSEDSAVYYCVYYSDSWFPYWGQGTLVTVSA
VL: DIQMTQSPASLSVSVGETVTITCRASENIYSNLAWYQQKQGKSPQLLVYAATNLADGVPSRFSGSGSGTQYSLKINSLQSEDFGNYFCQHFWGSPWTFGGGTKLEIKR
Turning to B15, the EC50 in experiment [1] was 1.33 nM; in experiment [2], 5.72 nM.

B16: LK-RB1-43 (antibody, human IgG4 S228P, kappa, V domains shown)
VH: EFQLQQSGPELMKPGASVKISCKASGYSFTDYNMNWVKQSNGKSLEWIGIIDPNYGTTTYNQKFKGRATLTVDQSSNTAYMQLNSLTSEDSAVYYCAREGRYSWFAYWGQGTLVTVSA
VL: DIQMTQSPGALSVSVGETVTITCRASENINSNLAWYQQKQGKSPQLLVYAATNLADGVPSRFSGSGSGTQYSLKINSLQSEDFGSYHCQHFWGTPFTFGSGTKLEIKR
As to B16, in experiment [2], the binding result is reported as “no binding”.

B17: LK-RB1-17 (antibody, human IgG4 S228P, kappa, V domains shown)
VH: QVQLQQPGAELVKPGASVKLSCEASGYTFTNYWIHWVKQRPGRGLEWIGRIAPNSGGTKYNEKFKTRATLTVDKASTTAYMQLSSLTSEDSAVYYCARLDGSPYYFDYWGQGTTLTVSS
VL: DIVMTQSQKFMSTSIGDRVSVTCKASQNVDTNVAWYQQKPGQSPKALIYSASYRYSGIPDRFTGSGSGTDFTLTISNVQSEDLAEYFCQQYNSYPYTFGGGTKLEIKR
Consider B17, for which the 50% effective concentration (EC50) in experiment [1] turned out to be 5.53 nM; in experiment [2], 47.4 nM.

B18: LK-RB1-32 (antibody, human IgG4 S228P, kappa, V domains shown)
VH: QVQLQQSGAELAKPGASVKLSCTASGYTFTTYLMHWVKQRPAQGLEWIGYINPSNDFTKYNQKFKDKATLTADTSSSTAYMQLNSLTFEDSAVYYCARNSDYDPSYWGQGTTLTVSS
VL: DIQMTQSPASLSVSVGETVTITCRASENIYSSLAWYQQKQGKSPQLLVYAATNLADGVPSRFSGSGSGTQYSLKINSLQSEDFGNYYCQHFWGTWAFGGGTKLEIKR
Take B18: in experiment [1], the response was half-maximal at 2.44 nM (EC50). The binding result in experiment [2] is listed as “no binding”.
